Drawing on patent US20020168363A1, “Integrin/adhesion antagonists” (Amgen Inc., priority 2000, published 2002), this text covers IC50 and Ki for 1 substance.

The target of this assay is GPIIb/IIIa (UniProt P08514). The experiment in a line: inhibition of hu Fibrinogen-Ru binding.

By IC50 is commonly meant the concentration needed to halve the response being measured. For orientation: Ki means the dissociation constant of the complex between target and ligand, obtained from inhibition or displacement. A lower Ki goes with tighter binding.

For the substance Fibrinogen, the IC50 was found to be 10.5 nM and the inhibitory constant (Ki) is 5.26 nM.
